Source: patent US20120172295A1

Target: glucagon receptor (UniProt P47871)
Experiment: cell-based or functional assay

glucagon receptor, sequence (P47871 26-477 limits assumed): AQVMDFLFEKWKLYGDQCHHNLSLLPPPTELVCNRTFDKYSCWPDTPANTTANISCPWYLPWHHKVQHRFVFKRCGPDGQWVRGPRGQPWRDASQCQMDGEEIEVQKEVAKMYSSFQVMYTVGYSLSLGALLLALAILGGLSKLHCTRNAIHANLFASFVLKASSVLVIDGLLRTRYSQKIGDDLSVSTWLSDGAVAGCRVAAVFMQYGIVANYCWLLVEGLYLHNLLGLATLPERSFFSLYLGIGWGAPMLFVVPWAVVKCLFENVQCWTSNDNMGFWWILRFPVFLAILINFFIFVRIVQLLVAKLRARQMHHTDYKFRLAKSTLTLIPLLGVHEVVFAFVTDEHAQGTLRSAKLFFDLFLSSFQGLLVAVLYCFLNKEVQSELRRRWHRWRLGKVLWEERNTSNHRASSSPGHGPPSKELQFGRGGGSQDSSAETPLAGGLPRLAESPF

Liraglutide (peptide)
% relative activity: 0.04%
